Data: article PMC7461980, “High-Level Production of Recombinant Snowdrop Lectin in Sugarcane and Energy Cane” (Frontiers in Bioengineering and Biotechnology, 2020)
“And” between values parts separate entries of the source, which are not always exact repeats. Equal values may be shown once.

Key:
P30617 = experiment: SEC; TSKgel G3000SW xL, HPLC; 50 mM sodium phosphate, 0.3 M NaCl, pH 7.0; non-reducing conditions; 1.0 mL/min; absorbance at 220 and 280 nm; mass standards 6.5-675 kDa
[1] = molecular target: the molecule itself; experiment: as above
[2] = molecular target: the molecule itself; experiment: MALDI-TOF MS; non-reducing conditions; sinapinic acid matrix; linear delayed positive ion mode; mass range 4,500-50,000 Da

Protein | purity (relative peak abundance) of the tetramer (P30617) | stoichiometry N [1] | stoichiometry N [2]
sugarcane recombinant GNA (Galanthus nivalis agglutinin, snowdrop lectin LECGNA2) (natural protein, UniProt P30617 20-128, looked up, Galanthus nivalis L. (snowdrop) lectin LECGNA2, expressed from the full-length cDNA (570 bp); the purified product is a band corresponding to mature GNA (about 12.0 kDa); The exact C-terminal end of the processed protein in sugarcane is not determined; native GNA 12,054.41 Da theoretical; also called sugarcane GNA) DNILYSGETLSTGEFLNYGSFVFIMQEDCNLVLYDVDKPIWATNTGGLSRSCFLSMQTDGNLVVYNPSNKPIWASNTGGQNGNYVCILQKDRNVVIYGTDRWATG | The purities of the recombinant GNA monomer and tetramer were 65.5% and 24%, respectively | 4 | 2 and 3
recombinant GNA109 (G. nivalis lectin LECGNA2 with four additional amino acids, Thr106 His107 Thr108 Gly109, at the C-terminus of the mature protein) (natural protein, Galanthus nivalis, numbers count on: the mature protein; four additional amino acids Thr106 His107 Thr108 Gly109 at the C-terminus of the mature protein; Theoretical mass printed: 12,051.42 Da; source: synthesized (GenScript); purified using immobilized mannose) DNILYSGETLSTGEFLNYGSFVFIMQEDCNLVLYDVDKPIWATNTGGLSRSCFLSMQTDGNLVVYNPSNKPIWASNTGGQNGNYVCILQKDRNVVIYGTDRWATGTHTG |  |  | 2 and 3
